Measured values from paper PMC11091121, “The structural basis for 2′−5′/3′−5′-cGAMP synthesis by cGAS”.

Experiments:
WT-mcGAScat = WT-mcGAScat (mouse, UniProt Q8C6L5 147-507); test: crystal structure; 2'-dATP; FA: 5 nM FAM-dsDNA, as previously reported (reaction buffer likely 25 mM Tris-acetate pH 7.4, 125 mM KAc, 5 mM MgAc2, 1 mM TCEP, 5% glycerol, 25 C); crystals: 0.2 M ammonium acetate, 32% MPD, 0.1 M Bis-Tris pH 6.5, 4 C; conditions: protein: recombinant; tags: none left (N-terminal 6xHis-MBP removed by TEV); chain copies: 2; blunt; self-complementary, 2 copies of the strand
QN-mcGAScat = QN-mcGAScat (mouse, UniProt Q8C6L5 147-507, E211Q;D213N); test: crystal structure; ATP, GTP, Mg2+; FA: 5 nM FAM-dsDNA, as previously reported (reaction buffer likely 25 mM Tris-acetate pH 7.4, 125 mM KAc, 5 mM MgAc2, 1 mM TCEP, 5% glycerol, 25 C); crystals: 0.2 M ammonium acetate, 32% MPD, 0.1 M Bis-Tris pH 6.5, 4 C; conditions: protein: recombinant; tags: none left (N-terminal 6xHis-MBP removed by TEV); chain copies: 2; blunt; self-complementary, 2 copies of the strand
Chain of QN-mcGAScat (Q8C6L5 147-507 E211Q/D213N): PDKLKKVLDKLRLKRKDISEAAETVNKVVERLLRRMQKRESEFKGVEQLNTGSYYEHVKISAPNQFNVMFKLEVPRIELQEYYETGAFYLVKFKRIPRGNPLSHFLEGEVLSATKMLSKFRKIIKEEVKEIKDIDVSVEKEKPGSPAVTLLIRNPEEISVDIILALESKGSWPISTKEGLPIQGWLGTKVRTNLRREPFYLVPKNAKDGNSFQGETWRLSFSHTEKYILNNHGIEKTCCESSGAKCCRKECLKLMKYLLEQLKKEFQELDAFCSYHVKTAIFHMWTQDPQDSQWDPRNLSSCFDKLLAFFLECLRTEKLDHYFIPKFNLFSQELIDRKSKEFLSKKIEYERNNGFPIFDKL

Chain of WT-mcGAScat (Q8C6L5 147-507): as the sequence (Q8C6L5 147-507 E211Q/D213N) above, with Q65E, N67D counted along it

B1: 18-bp palindromic dsDNA (dsDNA)
DNA 1: ATCTGTACATGTACAGAT
DNA 2: ATCTGTACATGTACAGAT
Question: Does B1 bind (WT-mcGAScat)?
Answer: binds

Question: Does B1 bind (QN-mcGAScat)?
Answer: binds
